Data as given in paper PMC10491584, “Structural convergence endows nuclear transport receptor Kap114p with a transcriptional repressor function toward TATA-binding protein” (Nature Communications, 2023).

Columns and labels:
[1] = target: T1, Kap114pΔ(Y939) (S. cerevisiae, UniProt P53067 1-1004, ΔY939); assay: ITC; MicroCal iTC200, 25 °C, 20 mM HEPES pH 7.4, 150 mM NaCl; high concentration: 50 µM wild type or mutant Kap114p in the sample cell, 500 µM wild type or mutant yTBPC in the syringe; triplicate; conditions: both partners purified
T1 construct: Kap114p, S. cerevisiae, full length with residue Y939 deleted; also called GST-Kap114p (Δ939); source: E. coli Rosetta, purified (GST resin, MonoQ, Superdex 200)
T1 sequence (looked up): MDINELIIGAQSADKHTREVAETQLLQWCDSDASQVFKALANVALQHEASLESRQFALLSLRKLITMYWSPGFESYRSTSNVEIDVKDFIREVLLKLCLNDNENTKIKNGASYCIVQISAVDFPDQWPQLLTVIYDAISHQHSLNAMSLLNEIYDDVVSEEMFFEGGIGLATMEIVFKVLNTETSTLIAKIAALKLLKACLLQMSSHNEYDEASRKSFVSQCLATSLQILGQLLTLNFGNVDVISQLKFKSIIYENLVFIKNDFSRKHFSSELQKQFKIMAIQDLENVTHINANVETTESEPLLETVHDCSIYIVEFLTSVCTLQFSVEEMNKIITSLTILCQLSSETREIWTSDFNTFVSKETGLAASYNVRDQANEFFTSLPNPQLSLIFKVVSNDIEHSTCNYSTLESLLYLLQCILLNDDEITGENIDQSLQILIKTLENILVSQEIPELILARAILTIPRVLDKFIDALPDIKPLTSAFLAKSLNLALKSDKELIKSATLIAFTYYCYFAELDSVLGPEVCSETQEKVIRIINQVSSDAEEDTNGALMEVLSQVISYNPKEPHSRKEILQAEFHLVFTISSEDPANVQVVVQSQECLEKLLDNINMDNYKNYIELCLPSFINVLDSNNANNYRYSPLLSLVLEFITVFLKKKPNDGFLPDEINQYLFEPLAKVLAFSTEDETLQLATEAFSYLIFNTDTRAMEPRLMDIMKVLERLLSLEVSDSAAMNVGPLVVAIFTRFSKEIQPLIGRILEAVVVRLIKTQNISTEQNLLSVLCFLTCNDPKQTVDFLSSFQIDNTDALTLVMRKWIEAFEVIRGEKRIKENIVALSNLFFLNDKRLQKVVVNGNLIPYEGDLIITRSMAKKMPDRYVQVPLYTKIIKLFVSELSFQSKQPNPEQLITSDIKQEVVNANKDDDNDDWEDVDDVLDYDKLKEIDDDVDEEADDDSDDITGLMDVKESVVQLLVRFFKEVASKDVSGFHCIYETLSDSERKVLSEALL

[2] = target: T2, Kap114pΔ(848-875) (S. cerevisiae, UniProt P53067 1-1004, Δ848-875); assay: as above; conditions: both partners purified
T2 construct: this construct is not in the list of mutants of the cloning methods; also called Δ(a.a.848-875); GST-Kap114p (Δ848-875); source: E. coli Rosetta, purified (GST resin, MonoQ, Superdex 200)
T2 sequence (looked up): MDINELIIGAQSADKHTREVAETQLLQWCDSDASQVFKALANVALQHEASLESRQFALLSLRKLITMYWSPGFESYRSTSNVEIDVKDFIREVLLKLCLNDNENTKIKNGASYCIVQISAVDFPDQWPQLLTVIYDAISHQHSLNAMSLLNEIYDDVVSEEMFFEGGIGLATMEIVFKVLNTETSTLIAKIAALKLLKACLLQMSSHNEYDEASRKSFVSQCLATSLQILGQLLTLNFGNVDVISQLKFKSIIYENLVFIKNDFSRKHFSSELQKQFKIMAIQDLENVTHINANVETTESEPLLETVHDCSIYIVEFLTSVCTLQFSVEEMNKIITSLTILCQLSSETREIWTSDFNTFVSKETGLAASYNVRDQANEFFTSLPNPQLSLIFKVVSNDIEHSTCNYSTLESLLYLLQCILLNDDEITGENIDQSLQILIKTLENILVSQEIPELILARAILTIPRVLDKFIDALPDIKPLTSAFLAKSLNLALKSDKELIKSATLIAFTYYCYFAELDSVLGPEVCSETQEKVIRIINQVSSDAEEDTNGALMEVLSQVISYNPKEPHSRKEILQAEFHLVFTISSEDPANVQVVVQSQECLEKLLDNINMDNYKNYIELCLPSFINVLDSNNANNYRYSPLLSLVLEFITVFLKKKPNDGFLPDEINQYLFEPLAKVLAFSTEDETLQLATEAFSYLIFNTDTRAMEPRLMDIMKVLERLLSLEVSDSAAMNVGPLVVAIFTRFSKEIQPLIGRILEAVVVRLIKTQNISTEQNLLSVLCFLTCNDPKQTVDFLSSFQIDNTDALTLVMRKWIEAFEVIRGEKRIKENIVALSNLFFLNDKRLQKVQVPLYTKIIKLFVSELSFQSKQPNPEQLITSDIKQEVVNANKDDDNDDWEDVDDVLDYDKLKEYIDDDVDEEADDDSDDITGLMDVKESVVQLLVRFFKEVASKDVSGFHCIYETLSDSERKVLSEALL

Kd [1]: 37.1 nM
Kd [2]: 1.7 nM
B1: yTBP^C wild type (core domain of yeast TATA-box binding protein, a.a. 61-240) (domain or fragment, S. cerevisiae, UniProt P13393 61-240, looked up)
chain: SGIVPTLQNIVATVTLGCRLDLKTVALHARNAEYNPKRFAAVIMRIREPKTTALIFASGKMVVTGAKSEDDSKLASRKYARIIQKIGFAAKFTDFKIQNIVGSCDVKFPIRLEGLAFSHGTFSSYEPELFPGLIYRMVKPKIVLLIFVSGKIVLTGAKQREEIYQAFEAIYPVLSEFRKM
notes: modified pET28a, 6xHis tag followed by a PreScission site; also called yTBPC WT; His-yTBP (61-240); source: E. coli Rosetta, purified (Ni-NTA, HiTrap SP, Superdex 75); not shown: His6, N-terminal, cleaved
